# Assay results reported in patent US7223734B2, “Plasma protein-binding ligands” (The American National Red Cross, priority 2002, dated 2007).
# Non-standard residues stand in square brackets, D forms with d. No end group written: not given here. 2Nal = N[C@@H](Cc1ccc2ccccc2c1)C(=O)O
# What was measured:
# vWF/fVIII [1] = target: T1, vWF/fVIII (Homo sapiens, UniProt P04275); test: Primary screening of 6-mer library for vWF/fVIII ligands; type: binding; parameters: from tissue; host or cells: human plasma (first round also purified vWF of unstated origin); conditions: bead screening, immunodetection
# Description: The ToyoPearl 650-M amino resin displaying the library of D- or L-hexamers ([…]) was incubated either with plasma or purified vWF in TBS buffer or EQ buffer. The captured proteins were subsequently eluted stepwise from the resin beads with sodium chloride (0.5 M, 1.0 M, 2.0 M) and guanidine (2–6 M). The target proteins were detected immunologically after transfer onto a PVDF membrane. One of three detection strategies was employed to detect target protein binding. A one-step immunodetection assay using a specific HRP-conjugated polyclonal sheep anti-human vWF antibody was performed. A differential-subtractive immuno-detection assay entailed detecting proteins transferred onto membranes with specific HRP-conjugated polyclonal sheep anti-human vWF antibody in 1:10,000 dilution (AHP062P; Serotec) followed by exposure to chemiluminescence substrate ECLPlus. Membranes were stripped and re-probed with rabbit anti-human albumin antibody (No. A0433, Lot No. 031K4897 from Sigma) followed by secondary alkaline phosphatase-labeled goat anti rabbit antibody (Tropix). Following film development, films were aligned and dots that appeared on films for vWF and on albumin films were deemed background signal. Dots positive for vWF but not for albumin were considered positive. A detection assay using radio-labeled antibody also was performed. Freshly I125-radiolabeled monoclonal anti-human vWF antibody, 101.104 (VWFAE; Enzyme Research) in dilution 1:250 in hSA-Hepes-0.14 M NaCl-Tween buffer was used for detection. After washing, membranes were exposed to Kodak films for 48 hrs at −80° C. Positive beads were picked and prepared for re-probing.
# All beads collected from several gels were pooled in the same tube, washed with water and incubated in 8 M Guanidine to remove remaining proteins before re-probing. After extensive washing with water and citrate buffer, the resin beads were blocked with 3% human albumin for 2 hours and incubated with human plasma. Resin beads were immobilized in agarose gels (6 cm×7 cm) and target protein was transferred to a PVDF membrane in 2 M NaCl for 20 hours. Membranes were blocked, incubated with 101.104 anti-vWF antibody, and detected with secondary goat/anti-mouse-HRP. In some experiments, sheep anti-human vWF antibody conjugated with HRP was used for detection. Positive beads were picked, washed, and the attached ligands were sequenced.
# For some re-probing experiments, resin beads linked to target proteins were visualized by adding specific antibody and color substrate to facilitate further alignment. Detection of a target protein bound to the resin beads by non-labeled monoclonal antibody 101.104 anti-vWF was used followed by goat/anti-mouse antibody conjugated with alkaline phophatase and FastRed prior to immobilizing beads in the agarose gel. Additional substrate CDPStar was applied directly onto a gel with immobilized beads, and the gel was exposed to a Kodak film. Dark spots on the film were correlated with red spots on the gel to ensure appropriate alignment. The proteins from resin beads immobilized in the gel were transferred onto a membrane and developed again with radiolabeled monoclonal antibody against vWF. The films and gel were aligned, and resin beads that appeared positive in all stages were picked, washed, and attached ligands sequenced.
# vWF/fVIII [2] = target: T1, vWF/fVIII; test: Removal of vWF/fVIII from plasma on D-EADna2′ED resin, fVIII coagulation assay (Example 11); type: binding; parameters: from tissue; host or cells: pooled human plasma
# Description: (§1) Pooled human plasma (20 ml) was added to 0.8 ml of resin and incubated for 30 minutes while gently rotating. Resin was settled under gravity or by short gentle centrifugation, and the supernatant was collected (the equivalent of “flow-through” of the previous examples). The resin was then packed into an Omni column and the chromatography was completed using the ÄKTAExplorer system. The flow rate was kept constant at 0.4 ml/min (LV=31 cm/h; retention time=2 minutes). After washing of the resin with EQ buffer to baseline, the bound proteins were eluted from the resin with 10 column volumes (CV) of 0.5 M NaCl, followed by 10 CVs of 0.75 M NaCl, 1.0 M NaCl/1% Tween (all in 0.02 M sodium citrate, pH 7.0) and 2.0 M guanidine. Twenty-five microliters of 0.4 M calcium chloride was added to each fraction collected, and the fractions were evaluated by OD reading and Western Blots for vWF and fVIII antigen. The fVIII activity of pooled fractions was determined by chromogenic and coagulation assays.
# vWF/fVIII [3] = target: T1, vWF/fVIII; test: Removal of vWF/fVIII from plasma on D-EADna2′ED resin, fVIII chromogenic assay (Example 11); type: binding; parameters: from tissue; host or cells: pooled human plasma; conditions: for FVIII / Total FVIII: Chromogenic Assay
# Description: as §1
# API = target: T2, API (Homo sapiens, UniProt P01009); test: Primary screening of 6-mer library for API-binding ligands; conditions: bead screening, immunodetection / radiolabel
# T2 construct: from tissue; host or cells: human plasma (whole, fibrinogen-depleted or F1-Apo-depleted)
# Description: Peptide libraries attached to Toyopearl-AF Amino 650M resin or Tentagel resin were evaluated with 14C-labeled fibrinogen and API. All steps were performed at room temperature. Specifically, 20 mg of Toyopearl resin beads or 40 mg of Tentagel resin beads were suspended in 20% methanol for a minimum of 2 hours in 15 ml conical polypropylene tubes (Corning). After rinsing with distilled water, the resin beads were equilibrated in 0.15 M NaCl, 0.020 M sodium citrate, pH 7.3. The resin beads were then blocked for 2 hours with 1% casein (Sigma) in 0.15M NaCl, 0.020M sodium citrate, pH 7.3. Following blocking, the resin beads were centrifuged and the supernatant removed. A solution containing 1 mM of C^14-labeled fibrinogen or 30 μM of C^14-labeled API was applied to the resin beads in the blocking solution in the presence of 0.1% Tween-20 (Sigma). The materials were incubated for 2 hours. The resin beads were washed with 0.15 M NaCl, 0.020 M sodium citrate, 0.05% Tween-20, pH 7.3, in a batch method (fibrinogen ligands) or in disposable BioRad 10 ml columns (API ligands) until radiation counts reached the background level of less than 40 DPM. The resin beads were divided into separate tubes to obtain approximately 5–10 mg of resin beads per sheet. This was accomplished by mixing each aliquot of resin beads with 20–22 ml of 1% low melting agarose solution (Sigma) at less than 40° C., and rapidly pouring the mixture onto GelBond® film sheets (BMA Cat. No. 53749, 16×18 cm; Cat. No. 53759, 12.5×24.5 cm). Spreading of the resin beads to the edge of the gel sheets was prevented by creating frames (about 23 cm×about 10 cm or about 15 cm×about 15 cm) with several layers of masking tape. About 20–22 ml of resin bead-agarose mixture was plated on each GelBond sheet. Special care was taken to spread the beads in an even monolayer to facilitate identification and isolation of individual “hot” beads. The agarose gel was then air-dried overnight and placed, bead side down, on X-ray film (Kodak Biomax MR). The agarose and autoradiography film were exposed for 4–14 days followed by a second exposure of 7 days in an about 20 cm×about 25 cm stainless steel cassette. Afterwards, the films were taped together and marked with several staple holes to ensure proper alignment of beads in agarose to film. After the films were developed, the positive beads that appeared on both films were identified under the microscope and picked by aligning the developed film(s) and agarose gel via the staple holes. Beads to be sequenced were carefully picked by cutting a square trench around the bead with a scalpel, and hydrating this area with distilled water. […]
# paraoxonase = conditions: resin bead suspension
# Description: Paraoxonase binding to a WWLHAN (SEQ ID NO: 56)-displaying resin was evaluated according to the following protocol. Rabbit serum diluted 1/10 times with PBS ([…]) was incubated in a rotating Eppendorf tube with 50 μl of D-WWLHAN (SEQ ID NO: 56)-displaying resin suspension containing approximately […] of resin. The resin was previously soaked in 20% methanol overnight and washed 3 times with PBS to remove the methanol traces and resuspended in paraoxonase assay buffer (20 mM Tris pH 8.0, 150 mM NaCl, and 2 mM CaCl2). After 1 hour incubation at 37° C., resin beads were precipitated by centrifugation at 8000 g for 1 min in an Eppendorf microcentrifuge. Supernatants were transferred into separate Eppendorf tubes and resin bead pellets were resuspended in equal volumes of paraoxonase assay buffer. Paraoxonase activity of resin bead suspensions and supernatant solutions was measured. In particular, 100 μl of paraoxonase assay buffer containing 100 μm of DEPFMU (a fluorogenic substrate for paraoxonase detection) was mixed with […] of supernatant or 10 μl of resin bead suspension, or the original serum solution in a standard microtiter plate well. After thorough mixing, the plate solution was incubated for 20 minutes at 37° C. Hydrolysis of DEPFMU was quantified by measuring the fluorescence level at […] using a commercial fluorometer. The level of fluorescence correlates with the level of 6,8-difluoro-4-methylumbelliferyl released from DEPFMU as a result of paraoxonase-mediated hydrolysis. The actual amount of 6,8-difluoro-4-methylumbelliferyl released in the assay can be calibrated with a known amount of 6,8-difluoro-4-methylumbelliferyl.
# Several different D-WWLHIN (SEQ ID NO: 33) analogs were screened for the ability to bind to paraoxonase under the conditions described in Example 7. For this experiment, the following resins were tested: WWLHAN (SEQ ID NO: 56), AWLHIN (SEQ ID NO: 59), WALHIN (SEQ ID NO: 60), WWAHIN (SEQ ID NO: 61), WWLHIA (SEQ ID NO: 63), WYLHIN (SEQ ID NO: 35), WWLFIN (SEQ ID NO: 36), and na1′WLHIN (SEQ ID NO: 40).
# T2 sequence (P01009 25-418): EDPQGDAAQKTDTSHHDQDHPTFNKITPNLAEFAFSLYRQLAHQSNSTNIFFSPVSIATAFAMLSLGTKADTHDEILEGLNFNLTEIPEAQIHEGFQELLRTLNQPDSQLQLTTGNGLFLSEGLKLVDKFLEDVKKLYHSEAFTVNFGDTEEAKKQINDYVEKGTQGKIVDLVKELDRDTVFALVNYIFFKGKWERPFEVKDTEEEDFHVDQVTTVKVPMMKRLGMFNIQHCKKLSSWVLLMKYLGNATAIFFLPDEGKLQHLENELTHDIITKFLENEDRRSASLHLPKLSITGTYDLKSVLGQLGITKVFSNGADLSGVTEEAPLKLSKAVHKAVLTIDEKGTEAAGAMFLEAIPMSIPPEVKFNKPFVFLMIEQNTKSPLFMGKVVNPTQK
substance,measurement,setting,value
"EADna2′ED (EAD[2Nal]ED; not fully specified; also: D-amino acids, positions not given here) [D-EADna2′ED]",identified as vWF/fVIII binding peptide from the 6-mer library,vWF/fVIII [1],vWF/fVIII binding
same,FVIII,vWF/fVIII [2]; Elution 1 (0.75 M NaCl),0.39 IU/ml
same,Total FVIII,vWF/fVIII [2]; Elution 1 (0.75 M NaCl),3.9 IU
same,FVIII,vWF/fVIII [2]; Elution 2 (1.0 M NaCl),0 IU/ml
same,Total FVIII,vWF/fVIII [2]; Elution 2 (1.0 M NaCl),0 IU
same,Total FVIII,"vWF/fVIII [2]; Flow-Through, load 8.46 IU",1.6 IU
same,FVIII,"vWF/fVIII [2]; Flow-Through, plasma load 0.423 IU/ml",0.08 IU/ml
same,FVIII,vWF/fVIII [2]; Wash (0.5 M NaCl),0 IU/ml
same,Total FVIII,vWF/fVIII [2]; Wash (0.5 M NaCl),0 IU
same,FVIII,vWF/fVIII [3]; Elution 1 (0.75 M NaCl),0.46 IU/ml
same,Total FVIII,vWF/fVIII [3]; Elution 1 (0.75 M NaCl),4.6 IU
same,FVIII,vWF/fVIII [3]; Elution 2 (1.0 M NaCl),0 IU/ml
same,Total FVIII,vWF/fVIII [3]; Elution 2 (1.0 M NaCl),0 IU
same,Total FVIII,"vWF/fVIII [3]; Flow-Through, load 21.4 IU",1.6 IU
same,FVIII,"vWF/fVIII [3]; Flow-Through, plasma load 20 ml, 1.07 IU/ml",0.08 IU/ml
same,FVIII,vWF/fVIII [3]; Wash (0.5 M NaCl),0.12 IU/ml
same,Total FVIII,vWF/fVIII [3]; Wash (0.5 M NaCl),1.2 IU
same,binding of vWF/fVIII by the resin,"vWF/fVIII [3]; plasma, fVIII activity and Western Blot for vWF",binds vWF/fVIII
EDSWDV,identified as vWF/fVIII binding peptide from the 6-mer library,vWF/fVIII [1],vWF/fVIII binding
HFDLHR,identified as API-binding peptide ligand from the 6-mer library,API,API-binding
LEDna2′EE (LED[2Nal]EE),identified as vWF/fVIII binding peptide from the 6-mer library,vWF/fVIII [1],vWF/fVIII binding
QWFPEK,identified as vWF/fVIII binding peptide from the 6-mer library,vWF/fVIII [1],vWF/fVIII binding
WALHIN [D-WALHIN],paraoxonase activity of bead fractions,paraoxonase,Significant activity
WWAHIN [D-WWAHIN],paraoxonase activity of bead fractions,paraoxonase,Significant activity
WWLFIN [D-WWLFIN],paraoxonase activity of bead fractions,paraoxonase,Significant activity
YHLGWL,identified as vWF/fVIII binding peptide from the 6-mer library,vWF/fVIII [1],vWF/fVIII binding
YLHYQT,identified as vWF/fVIII binding peptide from the 6-mer library,vWF/fVIII [1],vWF/fVIII binding
YVDEDD,identified as vWF/fVIII binding peptide from the 6-mer library,vWF/fVIII [1],vWF/fVIII binding
